{
  "source": "paper PMC12225977",
  "about": "(PLOS Computational Biology, 2025)",
  "target": "the molecule itself",
  "assay": "native MS",
  "data": [
    {"protein": "Francisella tularensis dihydrolipoyl dehydrogenase (IPD) (enzyme, also called Francisella IPD; MGH6-IPD) MSDIKTQVVVLGSGPGGYSAAFRAADLGLEVVLVERYAEIGGVCLNVGCIPSKAMLHIAKVINEARHLESLGIIEMGGLKINRENLLKYKDGVIGKLTGGLKGMAQMRKVKIVQGYGKFTSDKELAVEAADGKVTKIAFDNCIIAAGSSVIKLPFVPEDDRIIDSTGALEMKEIPETMLVVGGGIIGLEMAQVYSELGTKITVVEFADQLMNGVDKDLVKAYQKVNSRYDVRLKTAVTAMEAKEDGIYVTMEGDHPAKDERFDRVLMAIGRKPNGKLIDAEKAGVKVDERGFIPVDKQLRTNVPHIFAIGDIVGQPMLAHKAVPEGRTAAEVISGLNHSFDPLVIPSVAYTDPEVAWVGETETSAKAKGIKYEKGVFPWAASGRSLSIDRSEGMTKILFDENHKIIGASIVGTHAGELISEAAIAIEMGCDAEDIALTVHPHPTLSESLMMATEVYEGTATDLPPQKKKK", "values": [
      {"measurement": "stoichiometry N", "result": 2}
    ]}
  ]
}
